Laboratory results reported in the supplement of paper PMC10724198.
± gives the standard deviation of the averaged measurements.

Tested on: Saccharomyces cerevisiae
Assay: protein stability index of tFT-peptide fusion (C-terminal peptide) (PSI (0-1 scale)); higher = more stable (slower turnover)
Conditions: genetic background: wild type; temperature: 30 C
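Also: PSI is a weighted mean of sequencing reads over stability bins, variants kept only with over 10 reads, mCherry proximal and sfGFP distal, peptide attached via GGGS linker.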

Sequence	protein stability index
RPASPRSPIVSR	0.726 ± 0.024
WSSRGAIDSARH	0.762 ± 0.019
VGGMGAEGRGGK	0.721 ± 0.009
KRKKKENNKIKI	0.756 ± 0.1
FILLLPSPPPAP	0.618 ± 0.034
QRSFSLRLSAPV	0.681 ± 0.029
KRKKTRNKNGKG	0.627 ± 0.073
RPLPGAFLLFRS	0.695 ± 0.021
SPLTYTAPRCPR	0.82 ± 0.088
CGWAWGWRESKM	0.723 ± 0.1
YNRALPGGQAML	0.795 ± 0.039
WLPRPHPPLRPA	0.724 ± 0.08
VQSVDVLLISSL	0.642 ± 0.032
EALTLLGAFYLP	0.694 ± 0.025
RQQSIIDNQIGQ	0.6802 ± 0.0061
GFCWFRGVGSGG	0.683 ± 0.044
LFGFSPAPVSFG	0.733 ± 0.073
MIASRVSYDMSY	0.608 ± 0.043
HGAPLPTSAPKH	0.7271 ± 0.0031
RPPRPPTHSPPP	0.68 ± 0.01
FRYICYSRPVMR	0.684 ± 0.14
GHSNVTSQIRRG	0.643 ± 0.017
QRRRYKHEIKRM	0.648 ± 0.0085
LKKKSHRIKRSI	0.58471 ± 0.00035
LLLGSFFNKPTT	0.678 ± 0.035
WGGGGGRKVSVG	0.67 ± 0.082

Sequence	protein stability index
FAEWVRFWPGLV	0.6682 ± 0.0064
IKGSLILRGRGE	0.657 ± 0.025
VRGSLGQGNDTA	0.706 ± 0.03
PRPLPAPPQRNL	0.628 ± 0.017
LLPSPSPASSPS	0.74 ± 0.1
KGRKVVLETQLQ	0.7 ± 0.018
RHPVFSSTVSYI	0.738 ± 0.03
VGVPAGQRRLAS	0.718 ± 0.089
TPPFPSPLPPPS	0.753 ± 0.013
TDFPRDFPPVDL	0.7526 ± 0.0029
GVCWGNFGWRAV	0.6839 ± 0.005
APPPAAPALSPR	0.718 ± 0.096
LISNEGASRWDL	0.625 ± 0.018
QLGGLHIPHPLR	0.899 ± 0.028
RSISGVNMENVQ	0.639 ± 0.018
LFILSLGEYSLP	0.673 ± 0.066
SVFTLLGSMCLE	0.664 ± 0.011
HVPFPPTVLNSP	0.667 ± 0.088
LWGYFRTAASFV	0.645 ± 0.095
GRLHHYGRCAQG	0.664 ± 0.02
PHALSSFLSLFL	0.791 ± 0.017
LFTGPPPSPPPP	0.699 ± 0.034
KKKTKEKTRKKK	0.702 ± 0.016
GAMLAGRQGWGL	0.679 ± 0.018
SGTGRINWEGFL	0.709 ± 0.03
RARELGVPPPPP	0.579 ± 0.066

Sequence	protein stability index
RLARAPTQPRLS	0.67 ± 0.062
IKKEKKQKKKKG	0.665 ± 0.098
VLWIWRGFRGLG	0.626 ± 0.011
GRGGSIGEEWGG	0.693 ± 0.021
FPAYRPARLTPA	0.606 ± 0.033
KHVRIEVITERN	0.635 ± 0.056
LGGGVLDVRGQL	0.711 ± 0.011
SSLPVPGPFVND	0.69 ± 0.066
GVSSGVSFVLGH	0.702 ± 0.0083
LSQASPGSPRPA	0.698 ± 0.011
VPLPLVPCARIY	0.627 ± 0.0093
ERGACPGLRQLN	0.649 ± 0.015
HFLPFSLLLFPP	0.755 ± 0.14
PPHHPPPASRSQ	0.653 ± 0.068
CIFTVINNTPYC	0.801 ± 0.12
LSPQKRDSAVTR	0.638 ± 0.095
DPPLPLSPLTHR	0.679 ± 0.05
FPPRPLPFCSPA	0.643 ± 0.0046
REAPPYQSHVAS	0.676 ± 0.065
VGGACGLSGGLV	0.652 ± 0.062
VSGVLPGALFPL	0.684 ± 0.053
VFSGGTVRWVGG	0.702 ± 0.023
VIACTFLSCSFS	0.531 ± 0.02
KIHINTMFQIKK	0.536 ± 0.051
PTLLQPPPPSYP	0.704 ± 0.048
ARFSPTLQLTPT	0.844 ± 0.13

Sequence	protein stability index
AIEKKVNQTPFK	0.659 ± 0.034
IRKGKKIRKKEN	0.641 ± 0.037
MPNQTEARRKWV	0.633 ± 0.044
FGFLSVSPLLSV	0.642 ± 0.016
SRLLLPPRGILP	0.76 ± 0.15
VLLRRRASSISG	0.671 ± 0.043
KKNKKPKKQNNK	0.681 ± 0.063
HPQPIPVGGLSF	0.6962 ± 0.0049
FCLFTYIPSSCL	0.664 ± 0.035
RFSPRSLIFFPS	0.612 ± 0.03
EADRAPSGGAGN	0.673 ± 0.013
HLFVPGAFFFFS	0.718 ± 0.073
IGLVRPSGTQQT	0.6764 ± 0.006
GGGAGLVGGCVA	0.735 ± 0.019
PCRLTRSPRTLP	0.689 ± 0.1
TPPRVYPLLRTS	0.682 ± 0.016
GWGKWGVGIGRG	0.694 ± 0.032
PVVFFSYPLPSF	0.699 ± 0.019
PPPPLPPLTPLS	0.6512 ± 0.0037
VRRWAVSSAFVG	0.628 ± 0.054
MTLSCGVGLTVG	0.6521 ± 0.0009
AGSLFEVECNGS	0.746 ± 0.038
PPPLPPPSLVSF	0.6741 ± 0.0051
VWVWHGAVLMGG	0.527 ± 0.017
TLAPPLPPPPLV	0.731 ± 0.013
SVESAVRALQPT	0.731 ± 0.042

Sequence	protein stability index
AVTLAPPRLRPL	0.761 ± 0.029
GQWCGRLLRSGS	0.6845 ± 0.0059
KPRTLRPDQNAT	0.689 ± 0.0087
PFSPPLTPTFFP	0.7052 ± 0.0057
PPPPPTPPSSTP	0.713 ± 0.068
LSAPPPPPPPSP	0.7026 ± 0.003
QPPPPSPPPPLP	0.653 ± 0.047
DARALMGEGGSV	0.651 ± 0.016
GSKISIKDKAQV	0.685 ± 0.07
ARPGAWAPTEVD	0.737 ± 0.0099
HIPHSKPRTSLP	0.734 ± 0.048
HLIPSPPTPPRP	0.664 ± 0.0072
PPPHATPAPSPL	0.706 ± 0.045
HSFASTWYSSPG	0.685 ± 0.0076
PRHPLAPLPLPS	0.724 ± 0.026
VFQRFLLFTISP	0.61 ± 0.014
KKSKKHEKKKNK	0.711 ± 0.065
PPAPPHPPPFPP	0.589 ± 0.052
GFCLGSLPQRLD	0.65 ± 0.019
PLHRARAPHSYP	0.7167 ± 0.006
VFCLGTRSWGLF	0.6997 ± 0.0042
FPPVVSSLPPPS	0.686 ± 0.14
PQHFARSITPPP	0.64 ± 0.097
MESAGVGRVVWR	0.654 ± 0.051
THGMFVFSPPWF	0.785 ± 0.1
QRGGEGWILGGV	0.687 ± 0.026

Sequence	protein stability index
GKEKRKEGERRK	0.697 ± 0.12
SPVSLPIPYTFL	0.6891 ± 0.0054
QKKNQNKQEQKL	0.683 ± 0.021
CGGGGASGAIAR	0.668 ± 0.013
WSESVKEASFTS	0.756 ± 0.028
PPLPFSSSRFPS	0.666 ± 0.02
TFPKKKGLLNIS	0.636 ± 0.028
PRAPQNEHQTKG	0.667 ± 0.059
PANRGPPTPFSP	0.729 ± 0.024
SSPPHLPRPSSP	0.748 ± 0.024
SKNQEDEYTIHE	0.7 ± 0.024
FVGPAWLGVRSC	0.659 ± 0.012
IHDGKKEGKSQK	0.695 ± 0.017
SVPLYRLSSWRN	0.695 ± 0.021
PPSLPLLLPPCT	0.649 ± 0.019
DSDIIDYKMEII	0.722 ± 0.12
PRRQDSRLEQPD	0.713 ± 0.0077
FPLQSFCYFVPI	0.597 ± 0.0015
PKKNIKSKNIIL	0.714 ± 0.034
VCLCGGLGWVLF	0.634 ± 0.029
VIRQVKFDRKCS	0.681 ± 0.068
GQFASFQSTRPP	0.754 ± 0.077
CISGRGIYAKAF	0.699 ± 0.043
SPRSPPSPPPRP	0.746 ± 0.045
VGDGQVWGGQGG	0.669 ± 0.063
YDAGWVDVLLVI	0.6419 ± 0.0064

Sequence	protein stability index
APTVPVPPSPDA	0.705 ± 0.077
PFSPDVSSVVFL	0.667 ± 0.032
RIATRCEGPGHK	0.663 ± 0.015
QKKKKKNTKKKL	0.701 ± 0.054
VMGYCNWCVIRQ	0.694 ± 0.054
YINIKKKKINKT	0.688 ± 0.039
SPVLSPHSRSSF	0.633 ± 0.087
MICGCLWGSEGR	0.627 ± 0.11
SGGRVSGLVGEE	0.673 ± 0.031
ILQWEESRKGGI	0.715 ± 0.054
DQIDGPCNSRTR	0.674 ± 0.023
GGACGRRSEDCQ	0.633 ± 0.087
RCFGPPSRLAYF	0.683 ± 0.017
HLPSPSLPSPYF	0.7648 ± 0.0017
SFLHSRAELPAG	0.604 ± 0.065
WKGEMRDDGGRR	0.687 ± 0.041
GVRRSQSCPVRS	0.7065 ± 0.0051
RQGMGPKLVKHQ	0.633 ± 0.1
AWGRRGGRMKVG	0.62 ± 0.022
NKKKKETKNAQQ	0.698 ± 0.013
IPPFLVSLPFLP	0.702 ± 0.018
ASDSNPLDPADD	0.708 ± 0.011
EYKKKKTKANDT	0.6944 ± 0.0015
IKVIACSEPIPG	0.592 ± 0.021
GVGGGMWCGFGV	0.701 ± 0.074
KKGREKKQQKER	0.717 ± 0.015

Sequence	protein stability index
IKKKKKKTPKNM	0.714 ± 0.062
RDALVNADKIGR	0.703 ± 0.061
GSCPPHPALPHL	0.713 ± 0.048
KKKKKKKETKKR	0.661 ± 0.047
WVRQYFRGLQLR	0.595 ± 0.074
VPSGVWGVLGFA	0.667 ± 0.048
HFQASRLLCEGD	0.638 ± 0.026
KQKNSNKKTQRI	0.712 ± 0.021
WWLRLVLCGWEW	0.721 ± 0.074
RTHTAALCRTHS	0.7047 ± 0.0057
LRPRPPTLPPSR	0.638 ± 0.04
SHSPAPSFPYFP	0.7367 ± 0.0026
RYPPVQPRRAQR	0.593 ± 0.031
ALCGWYMGLFHL	0.646 ± 0.0042
KKKKIKIKKKKI	0.763 ± 0.043
SGLPPYTPPLSF	0.80558 ± 0.00056
PRPRPRSGWILL	0.696 ± 0.036
PPGPPPPLPISP	0.7244 ± 0.0044
RLTEVRVTLGSL	0.711 ± 0.082
RGVPPPCPLLAA	0.599 ± 0.077
